US20110059093A1 (Hoffmann-La Roche, published 2011)
Square brackets hold non-standard residues; d marks the D form. Ends that are not written are not given here. pS = N[C@@H](COP(=O)(O)O)C(=O)O

T1: phosphorylated Tau fragment Ser-Ile-Asp-Met-Val-Asp-Ser(PO3H2)-Pro-Gln-Leu-Ala-Thr-Leu-Ala-Asp (SEQ ID NO:9) (human, also: biotin attached through 1x epsilon-lysine and 4x beta-alanine, site not given here)
T1 construct: also called Tau (416-430)[pS422]; Tau phosphopeptide
T1 peptide: SIDMVD[pS]PQLATLAD

T2: Tau fragment Ser-Ile-Asp-Met-Val-Asp-Ser-Pro-Gln-Leu-Ala-Thr-Leu-Ala-Asp (SEQ ID NO:10) (human, also: biotinylated, site not given here)
T2 construct: Biotinylated control peptide on streptavidin plates; also called nonphosphorylated Tau fragment; non-phosphorylated Tau (416-430)
T2 peptide: SIDMVDSPQLATLAD

T3: phosphorylated MCAK fragment Ile-Gln-Lys-Gln-Lys-Arg-Arg-Ser(PO3H2)-Val-Asn-Ser-Lys-Ile-Pro-Ala (SEQ ID NO:17) (human, also: Glu(biotinyl-PEG) coupled to the peptide, site not given here)
T3 construct: Fragment of human mitotic centromere-associated kinesin (KIF2C, UniProt Q99661 printed); biotinylated control peptide; also called MCAK phosphopeptide
T3 peptide: IQKQKRR[pS]VNSKIPA


Legend:
[1] = molecular target: T1, phosphorylated Tau fragment …; assay: ELISA, ratio of EC50 values on the two peptides
[2] = molecular target: T4, KLH (key hole limpet hemocyanine); assay: ELISA, single point, KLH coated
T4 construct: Control antigen coated at 1 µg/ml
Method: (§1) Rabbit monoclonal antibodies were recombinantly expressed in HEK 293 cells. Cell culture supernatants or purified rabbit antibodies were tested for binding to biotinylated Tau (416-430)[pS422], non-phosphorylated Tau (416-430), KLH (key hole limpet hemocyanine) and the unrelated phospho-peptide MCAK_Human (88-102)[95-pSer] by ELISA. For the preparation of ELISA plates, streptavidine pre-coated microtiter plates were incubated with biotinylated Tau ([…])[pS422] at 50 ng/ml for 1 hour at room temperature. Coating with KLH or control peptides was performed at 1 μg/ml. Rabbit Anti Tau pS422 antibody (Abcam AB51071) or rabbit antibody containing supernatants were incubated in the antigen labeled microtiter plates for 60 min at various concentrations. After intensive washing, the binding of the rabbit antibodies was detected using a sheep anti-rabbit IgG digoxigenin conjugated detection antibody (Chemicon AQ301D). After incubation with TMB at room temperature absorbance at 370 nm-492 nm was measured. The antibody binding was characterized by its EC50 values. The antibody binding to biotinylated Tau (416-430)[pS422] and non-phosphorylated Tau (416-430) peptides was characterized by its EC50 values. Cross-reactivity with KLH or MCAK phosphopeptide was estimated by single-point measurement at high concentrations, i.e. at 1:5 dilution of the cell culture supernatants. […] Binding to KLH and MCAK control phosphopeptide was at background level with all antibodies, which is about […] of the maximal value measures with Tau phosphopeptide.

[3] = molecular target: T2, Tau fragment …; assay: ELISA, biotinylated peptide on streptavidin plate, anti-rabbit IgG detection
Method: as §1

[4] = molecular target: T1, phosphorylated Tau fragment …; assay: as above
Method: as §1

[5] = molecular target: T3, phosphorylated MCAK fragment …; assay: ELISA, single point, MCAK phosphopeptide coated
Method: as §1

[6] = molecular target: T3, phosphorylated MCAK fragment …; assay: ELISA, biotinylated peptide on streptavidin plate
Method: Peptides representing the Tau pS422 sequence 416-430 (phosphorylated and non phosphorylated) and MCAK_Human (88-102)[95-pSer] were synthesized and biotinylated to allow the coating to a streptavidin labeled microtiter plate. To test for maximal binding of Tau phosphopeptide to the assay plates, different concentrations of Tau phosphopeptide ranging from 1 ng/ml to 2000 ng/ml were used for coating. Finally 50 ng/ml Tau phosphopeptide was used for coating for 60 min at room temperature. Anti Tau pS422 antibodies 2.10.3., 2.20.4. and 5.6.11 were incubated in the peptide labeled microtiter plates for 60 min in concentrations up to 1000 ng/ml. After washing, the binding of the antibodies was detected using an anti-mouse—IgG Fc antibody which was POD-labeled. After incubation with ABTS® for 20 min at room temperature absorbance (O.D.) at 405 nm-492 nm was measured. The antibody binding was determined by EC₅₀. Typical EC₅₀ value could be determined in the range of 100 ng/ml for 2.10.3., 8 ng/ml for 2.20.4. and 1 ng/ml for 5.6.11. The nonphosphorylated Tau fragment and (MCAK_Human (88-102)[95-pSer]) were used as controls. No binding of the control peptides could be observed. Typical back-ground values were around 30 mE (Table 1), which is about 1% of the maximal value measured with phosphorylated Tau fragment. […]

selectivity compared to non-phosphorylated Tau peptide [1] [fold] | OD 1:5 dilution of supernatant [2] [mE] | EC50 [3] [µg/mL] | EC50 [4] [µg/mL] | OD 1:5 dilution of supernatant [5] [mE] | binding result [6] | Binder
≥ 100 | 0.042 | 1.28 | 0.0013 | 0.029 | – | anti-Tau pS422 antibody Mab 097 (antibody, V domains shown, Rabbit monoclonal antibody, recombinantly expressed in HEK293 with rabbit kappa and gamma constant regions) VH: QSVEESGGRLVTPGTPLTLTCTVSGIDLSSYSITWVRQAPGKGLEYIGFIGTGGSTYYASWAKGRFTISRTSTTVDLKITSPTTEDTATYFCARGGDLWGPGTLVTVSS VL: QVLTQTASSVSAAVGGTVTINCQSSQNVYNNNKLAWFQQKPGQPPKRLIYGASTLASGVSSRFKGSGSGTQFTLTISDLECDDAATYYCLGGYSGNIYTFGGGTEVVVK
≥ 100 | 0.029 | 0.146 | 0.0009 | 0.062 | – | anti-Tau pS422 antibody Mab 085 (antibody, V domains shown, Rabbit monoclonal antibody, recombinantly expressed in HEK293 with rabbit kappa and gamma constant regions) VH: QSVEESGGRLVTPGTPLTLTCTVSGLSLSSNAINWVRQAPGKGLEWIGYIAVSGNTYYASWAKGRFTISKASTTVDLKMTSPTAEDTGTYFCGKSNIWGPGTLVTVSL VL: QVLTQTASPVSAAVGITVTISCQSSQSVRTNKLAWFQQKPGQPPKRLIYSASTLDSGVPSRFSASGSGTQFTLTISDVQCDDAATYYCLGYYDCSIADCVAFGGGTEVVVK
≥ 100 | 0.046 | 0.266 | 0.0011 | 0.104 | – | anti-Tau pS422 antibody Mab 086 (antibody, V domains shown, Rabbit monoclonal antibody, recombinantly expressed in HEK293 with rabbit kappa and gamma constant regions) VH: QSVEESGGRLVTPGTPLTLTCTVSGFSLSSNAINWVRQAPGKGLEWIGYIAVSGNTYYASWAKGRFTISKASTTVDLKMTSPTAEDTGTYFCGKSNIWGPGTLVTVSL VL: QVLTQTTSPVSAAVGSTVTISCQSSQSVRTNKLAWFQQKPGQPPKRLIYSASTLDFGVPSRFSASGSGTQFTLTISDVQCDDAATYYCLGYFDCSIADCVAFGGGTEVVVK
≥ 100 | 0.026 | 1.08 | < 0.003 | 0.023 | – | anti-Tau pS422 antibody Mab 019 (antibody, V domains shown, Rabbit monoclonal antibody, recombinantly expressed in HEK293 with rabbit kappa and gamma constant regions) VH: QSVEESGGRLVTPGTPLTLTCTVSGIDLSSYTMNWVRQAPGKGLDWIGFINSGGYTSYASWTRGRFTISKTSTTVDLRITSPTTEDTATYFCARYGGGSGFDLWGPGTLVTVSS VL: QVLTQTASSVSAAVGGTVTINCQSSQSVYNNRLAWYQQKPGQPPKLLIYKASTLASGVPSRFKGSGSGTQFTLTISDLECDDAATYYCAGGYINIFAFGGGTEVVVK
– | – | – | – | – | no binding (tested: up to 1000 ng/ml) | Mab2.10.3 (anti-Tau pS422 antibody) (antibody, IgG1, V domains shown, Mouse monoclonal antibody purified from hybridoma supernatant; also called clone 2.10.3; Tau_2.10.3) VH: EVQLVESGGDLVRPGGSLKLSCAASGFTFRTYGMSWVRQTADKRLEWVATISSGGTYTYYADNVRERFTISRDNARDTLYLQMSRLESDDTAMYYCTRRYGYDGGGSFDVWGAGTRVTVSS VL: EIVMTQAAPSVPVTPGESASISCRSNKSLLHSNGNTYLCWFLQRPGQSPQLLIYRMSTLAPGVPDRFSGSGSGTAFTLRISRLEAEDVGVYYCMQHIEYPLTFGAGTKLELK
≥ 100 | 0.026 | 3.73 | < 0.003 | 0.067 | – | anti-Tau pS422 antibody Mab 005 (antibody, V domains shown, Rabbit monoclonal antibody, recombinantly expressed in HEK293 with rabbit kappa and gamma constant regions) VH: QSVEESGGRLVTPGTPLTLTCTVSGLSLSSNAINWVRQAPGKGLEWIGYISTSGNTYYASWAKGRFTISKTSTTVDLKITSPTTEDTATYFCGRGDLWGPGTLVTVSS VL: QVLTQTASPVSAAVGSTVTINCQASQSVYKNNYLAWFQQKPGQPPKRLIYSASTLASGVSSRFKGSGSGTQFTLTISDVQCDDAATYYCLGSCDSSSNNCVAFGGGTEVVVK
– | 0.016 | – | – | 0.01 | – | anti-Tau pS422 antibody Mab 020 (antibody, V domains shown, Rabbit monoclonal antibody, recombinantly expressed in HEK293 with rabbit kappa and gamma constant regions) VH: QSVEESGGRLVTPGTPLTLTCKVSGFSLSSYDMNWVRQAPGKGLEWVGAISTGGNTYYASWAKGRFTISKTSTTVTLTITSPTTADTATYFCARGSSIWGPGTLVTVSL VL: QVLTQTASPVSAAVGSTVTINCQASQSVYKNNYLRWYQQKPGQPPKRLIYTASTLASGVSSRFKGSGSGTQFTLTISDVQCDDAATYYCLGGYDCNSADCWAFGGGTEVVVK
